# Assay results published in patent publication US20230348630A1.
# Key:
# [1] = biological target: CD3D&E protein (Cat #: CT038-H2508H, Sino Biological) (human) (UniProt P04234); test: phage ELISA on CD3D&E protein, detection with HRP anti-M13 antibody
# [2] = biological target: BCMA-his protein (Cat #: BCA-H522y, ACRO) (human) (UniProt Q02223); test: phage ELISA on BCMA-his protein, detection with HRP anti-M13 antibody
# Sequence of BCMA-his protein (Cat #: BCA-H522y, ACRO) (human) (Q02223 1-54 limits assumed): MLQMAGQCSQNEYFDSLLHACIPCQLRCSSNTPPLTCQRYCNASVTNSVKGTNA
# Sequence of CD3D&E protein (Cat #: CT038-H2508H, Sino Biological) (human) (P04234 22-105, chain 1 of 2): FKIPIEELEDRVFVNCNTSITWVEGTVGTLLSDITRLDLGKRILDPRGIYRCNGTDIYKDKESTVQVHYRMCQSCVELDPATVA
# Sequence of CD3D&E protein (Cat #: CT038-H2508H, Sino Biological) (human) (P07766 23-126, chain 2 of 2, further chain): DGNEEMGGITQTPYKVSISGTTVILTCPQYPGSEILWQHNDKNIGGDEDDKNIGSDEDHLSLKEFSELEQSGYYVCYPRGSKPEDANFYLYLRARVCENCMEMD
Binder,EC50 (read off the curve) [1] [µg/mL],EC50 (read off the curve) [2] [µg/mL]
"anti-CD3D&E antibody 7-1A12 scFv displayed on phage (scFv, part only; not given: scFv linker, part only) scFv, part: EVQLVESGGGLVQPGRSLRLSCAASGFTFSDYTMHWVRQAPGKGLEWVSGISWNTGTIGYADSVKGRFTISRDNAKKSLYLQMNSLRAEDTALYYCAKDNSGYGHYYFGMDVWGQGTTVTVASEIVMTQSPATLSVSPGERATLSCRASQSVSRNVAWYQQKPGQAPRLLIYGASTRQTGIPARFSGSGSGTEFTLTISSLQSEDFAVYYCQSYINWPLQFGGGTKVEIK",4,–
"anti-BCMA antibody A6-3 scFv displayed on phage (scFv, part only; not given: scFv linker, phage coat fusion, V domains shown, not shown: another chain or arm of the molecule; large carriers; small tags and cut ends) VH: QVQLVQSGAEVKKPGASVKVSCKASGYTFTNHIIHWVRQAPGQGLEWMGYINPYPGYHGYNDKFSGRATMTSDTSTSTVYMELSSLRSEDTAVYYCARDGYYRDQDVLDYWGQGTLVTVSS VL: DIQMTQSPSSLSASVGDRVTITCKASQDISQYLNWYQQKPGKAPKLLIYYTSGLHPGVPSRFSGSGSGTDFTFTISSLEPEDIATYYCQQGYALPWTFGQGTKVEIK",–,1
"anti-CD3D&E antibody D1E9 scFv displayed on phage (scFv, part only; not given: scFv linker, phage coat fusion, V domains shown, not shown: another chain or arm of the molecule; large carriers; small tags and cut ends) VH: EVQLVESGGGLVQPGRSLRLSCAASGFTFDDFAMHWVRQAPGKGLEWVSGITWNSGSVGYADSVKGRFTISRDNAKKSLYLQMNSLRAEDTALYYCAKDRSGYGHYYYGMDVWGQGTTVTVAS VL: EIVMTQSPATLSVSPGERATLSCRASTSVSHNVAWYQQKPGQAPRLLIYGASTKVTGIPARFSGSGSGTEFTLTISSLQSEDFAVYYCQHYINWPLTFGGGTKVEIK",20,–
